For experiment [1], the target named is T1, Human Angiopoietin-2 full-length (hAng2) (human, UniProt O15123 19-496).
T1 construct: The cell assays used full-length hAng2 from R&D Systems; also called human Ang2; A2
T1 sequence: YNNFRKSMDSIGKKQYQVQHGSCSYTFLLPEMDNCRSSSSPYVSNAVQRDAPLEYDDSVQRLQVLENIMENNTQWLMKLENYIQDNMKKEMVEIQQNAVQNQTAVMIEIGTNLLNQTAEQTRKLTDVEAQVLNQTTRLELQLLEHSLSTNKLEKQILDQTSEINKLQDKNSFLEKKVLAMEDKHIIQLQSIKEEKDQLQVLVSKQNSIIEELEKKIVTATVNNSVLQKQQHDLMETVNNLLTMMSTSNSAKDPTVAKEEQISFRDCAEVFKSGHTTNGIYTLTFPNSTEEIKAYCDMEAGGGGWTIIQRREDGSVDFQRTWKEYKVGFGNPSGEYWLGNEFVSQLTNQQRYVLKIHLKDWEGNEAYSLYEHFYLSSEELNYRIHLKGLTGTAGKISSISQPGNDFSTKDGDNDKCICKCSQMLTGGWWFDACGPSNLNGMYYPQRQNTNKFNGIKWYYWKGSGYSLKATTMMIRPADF
Put plainly: BLI (Octet), hAng2 fixed on AR2G sensor, antibody 3.125-50 nM in solution, 1:1 global fit. Here is the method: (§1) The affinity of mouse monoclonal antibody against hAng2 was measured using Octet system (ForteBio). Specifically, buffer and samples were measured in total 200 μl/well using Black 96-well plates (96 well F-type black plates, Greiner). […] After the hydration, hAng2 was diluted in 10 mM sodium acetate, pH 6.0 buffer at a concentration of 10 μg/ml, fixed on AR2G biosensor, and blocked with 1M ethanolamine. The mouse monoclonal anti-Ang2 antibodies were diluted to 50, 25, 12.5, 6.25, 3.125, and 0 nM with 1× kinetic buffer, and subjected to association for 300 seconds and dissociation for 900 seconds.
On the technique in general: Biolayer interferometry detects binding as a change in optical thickness at a sensor tip.

The target of experiment [2] is T1, Human Angiopoietin-2 full-length (hAng2). As to the kind of experiment: BLI (Octet), antibody fixed on AR2G sensor, hAng2 3.125-50 nM in solution, 1:1 global fit. Here is the method: as §1, with “of humanized anti-Ang2” for “of mouse monoclonal”, “hydration, humanized anti-Ang2 antibody” for “hydration, hAng2”, “The recombinant hAng2 was” for “The mouse monoclonal anti-Ang2 antibodies were”, “300 sec” for “300 seconds”, “900 sec.” for “900 seconds.”
The affinities of humanized 2C8 antibodies to hAng2 were in Table 15.

Where a chain is given by its changes, count along the chain named.

B1: mouse anti-Ang2 antibody 2C8 (antibody, V domains shown)
VH: QVQLQQSGPQLVRPGASVKISCKASGYSFTSYWMHWVKQRPGQGLEWIGMIDPSDSETRLNQKFKDKASLTVDKSSSTAYMQLSSPTSGDSAVYYCARRFYYGSDWYFDVWGAGSTVTVSS
VL: DIVMTQSHKFMSTSVGDRVSITCKASQDVGTAVAWYQQKPGQSPKLLIYWASTRHTGVPDRFTGSGSGTDFTLTISNVQSEDLADYFCQQYSSYPLTFGSGTKLEIK
As usually defined, the Kd is the concentration at which binding is half-saturated. The low end stands for a tighter complex, the high end for a looser complex. For orientation: koff means the rate constant with which the complex falls apart. A word on the kon: it is the second-order rate constant of association. As for B1, in experiment [1], binding was put at a Kd of 0.0455 nM, the koff was 3.54e-06 s⁻¹ and the association rate constant (kon) stood at 77800 M⁻¹ s⁻¹.

B2: humanized anti-Ang2 antibody 2C8H32 (antibody, V domains shown)
VH: QVQLVQSGAEVKKPGASVKVSCKASGYSFTSYWMHWVRQAPGQGLEWIGMIDPSDSETRLNQKFKDKASMTRDTSTSTVYMELSSLRSEDTAVYYCARRFYYGSDWYFDVWGQGTLVTVSS
VL: DIQLTQSPSFLSASVGDRVSITCKASQDVGTAVAWYQQKPGKAPKLLIYWASTRHTGVPDRFSGSGSGTEFTLTISSLQPEDFATYYCQQYSSYPLTFGQGTKVEIK
notes: Full-length human IgG1
B2: in experiment [2], the dissociation constant Kd is 0.197 nM, the koff worked out at 1.49e-05 s⁻¹ and the kon was determined as 75700 M⁻¹ s⁻¹.

B3: 4B9H11G4 (human IgG4 class antibody of 4B9H11) (antibody, V domains shown)
VH: QVQLVESGGGLVKPGGSLRLSCAASGFTFSDYYMYWIRQAPGKGLEWVSTISVGGSFTYYPDSVKGRFTISRDNAKNSLYLQMNSLRAEDTAVYYCARDWGLRPWFVYWGQGTLVTVSS
VL: B2 VL with L4M, F10S, S20T, G30S, D60S, E70D, Y91H, S92Y, Y94T, L96P
notes: The heavy chain constant region was replaced by an IgG4 class constant region; The sentence prints '4B9 heavy chain gene' where 4B9H11 is meant; also called 4B9H11-IgG4
On to B3, for which, in experiment [2], the Kd is 0.08 nM, the koff turned out to be 3.46e-05 s⁻¹ and the kon was determined as 432000 M⁻¹ s⁻¹.

B4: humanized anti-Ang2 antibody 2C8H31 (antibody, V domains shown)
VH: B2 VH
VL: B2 VL with S20T, D60S
notes: Full-length human IgG1
In experiment [2], B4 displayed a Kd of 0.266 nM, a koff of 2.21e-05 s⁻¹ and a kon of 83200 M⁻¹ s⁻¹.

B5: humanized anti-Ang2 antibody 4B9H21 (antibody, V domains shown)
VH: B3 VH with I37V
VL: B2 VL with L4M, F10S, S20T, G30S, D60S, E70D, Y91H, S92Y, Y94T, L96P
notes: Full-length human IgG1
In experiment [2], B5 returned a Kd of 0.121 nM, an off-rate constant (koff) of 8.94e-06 s⁻¹ and a kon of 73700 M⁻¹ s⁻¹.

B6: 2C8H11G4 (human IgG4 class antibody of 2C8H11) (antibody, V domains shown)
VH: B2 VH with S28T, I48M, K67R, A68V, S69T
VL: B2 VL with S20T, D60S
notes: The heavy chain constant region (CH1-hinge-CH2-CH3) was replaced by an IgG4 class constant region; also called 2C8H11-IgG4
In experiment [2], B6 displayed a Kd of 0.0105 nM, an off-rate (koff) of 4.35e-06 s⁻¹ and a kon of 415000 M⁻¹ s⁻¹.

B7: humanized anti-Ang2 antibody 2C8H23 (antibody, V domains shown)
VH: B2 VH with K67R, A68V, S69T
VL: B2 VL with T85D, Y87F
notes: Full-length human IgG1
As for B7, in experiment [2], the affinity, expressed as Kd, was 0.287 nM; the koff worked out at 2.28e-05 s⁻¹; the kon was 79500 M⁻¹ s⁻¹.

B8: humanized anti-Ang2 antibody 2C8H42 (antibody, V domains shown)
VH: B2 VH with R38K
VL: B2 VL
notes: Full-length human IgG1
Regarding B8, in experiment [2], the affinity, expressed as Kd, was 0.381 nM; the koff came to 3.07e-05 s⁻¹; the kon turned out to be 80600 M⁻¹ s⁻¹.

B9: humanized anti-Ang2 antibody 4B9H31 (antibody, V domains shown)
VH: B3 VH with I37V, S49A
VL: B2 VL with L4M, F10S, S20T, G30S, D60S, E70D, Y91H, S92Y, Y94T, L96P
notes: Full-length human IgG1
In experiment [2], B9 showed a Kd of 0.167 nM, a koff of 1.56e-05 s⁻¹ and a kon of 93900 M⁻¹ s⁻¹.

B10: humanized anti-Ang2 antibody 2C8H33 (antibody, V domains shown)
VH: B2 VH
VL: B2 VL with T85D, Y87F
notes: Full-length human IgG1
In experiment [2], B10 returned a Kd of 0.0445 nM, a koff of 3.99e-06 s⁻¹ and a kon of 89600 M⁻¹ s⁻¹.

B11: humanized anti-Ang2 antibody 2C8H43 (antibody, V domains shown)
VH: B2 VH with R38K
VL: B2 VL with T85D, Y87F
notes: Full-length human IgG1
In experiment [2], B11 had an equilibrium dissociation constant (Kd) of 0.373 nM, a koff of 2.65e-05 s⁻¹ and a kon of 71100 M⁻¹ s⁻¹.

B12: humanized anti-Ang2 antibody 2C8H51 (antibody, V domains shown)
VH: B2 VH with R38K, M70L, R72V
VL: B2 VL with S20T, D60S
notes: Full-length human IgG1
On to B12, for which, in experiment [2], binding was put at a Kd of 0.137 nM, the koff came out at 9.61e-06 s⁻¹ and the kon is 70200 M⁻¹ s⁻¹.

B13: humanized anti-Ang2 antibody 2C8H53 (antibody, V domains shown)
VH: B2 VH with R38K, M70L, R72V
VL: B2 VL with T85D, Y87F
notes: Full-length human IgG1
In experiment [2], B13 came in with a Kd of 0.384 nM, a koff of 3.11e-05 s⁻¹ and a kon of 80900 M⁻¹ s⁻¹.

B14: humanized anti-Ang2 antibody 2C8H12 (antibody, V domains shown)
VH: B2 VH with S28T, I48M, K67R, A68V, S69T
VL: B2 VL
notes: Full-length human IgG1
As for B14, in experiment [2], binding was characterised by a dissociation constant (Kd) of 0.139 nM, the koff worked out at 1.33e-05 s⁻¹ and the kon worked out at 95200 M⁻¹ s⁻¹.

B15: humanized anti-Ang2 antibody 2C8H21 (antibody, V domains shown)
VH: B2 VH with K67R, A68V, S69T
VL: B2 VL with S20T, D60S
notes: Full-length human IgG1
In experiment [2], B15 came in with a Kd of 0.135 nM, a koff of 1.5e-05 s⁻¹ and a kon of 111000 M⁻¹ s⁻¹.

B16: humanized anti-Ang2 antibody 2C8H41 (antibody, V domains shown)
VH: B2 VH with R38K
VL: B2 VL with S20T, D60S
notes: Full-length human IgG1
In experiment [2], B16 came in with a Kd of 0.249 nM, a koff of 1.67e-05 s⁻¹ and a kon of 67000 M⁻¹ s⁻¹.

B17: humanized anti-Ang2 antibody 2C8H13 (antibody, V domains shown)
VH: B2 VH with S28T, I48M, K67R, A68V, S69T
VL: B2 VL with T85D, Y87F
notes: Full-length human IgG1
In experiment [2], B17 displayed a Kd of 0.246 nM, a koff of 2.77e-05 s⁻¹ and a kon of 113000 M⁻¹ s⁻¹.

B18: humanized anti-Ang2 antibody 2C8H52 (antibody, V domains shown)
VH: B2 VH with R38K, M70L, R72V
VL: B2 VL
notes: Full-length human IgG1
As to B18, in experiment [2], the affinity, expressed as Kd, was 0.243 nM; the koff was determined as 1.99e-05 s⁻¹; the kon is 81900 M⁻¹ s⁻¹.

B19: humanized anti-Ang2 antibody 2C8H22 (antibody, V domains shown)
VH: B2 VH with K67R, A68V, S69T
VL: B2 VL
notes: Full-length human IgG1
In experiment [2], B19 showed a Kd of 0.115 nM, a koff of 6.84e-06 s⁻¹ and a kon of 59600 M⁻¹ s⁻¹.

B20: mouse anti-Ang2 antibody 4E2 (antibody, V domains shown)
VH: EVQLQQSGPELEKPGASVKISCKASGYSFTGYNMNWVKQSNGKSLEWIGNIDPYYGGTSYNQKFKGKATLTVDKSSSTAYMQLKSLTSEDSAVYYCVRYGNYVDYWGQGTTLTVSS
VL: DIVMTQSHKFMSTSVGDRVSITCKASQDVSTAVAWYQQKPGQSPKLLIYWASTRHTGVPDRFTGSGSGTDYTLTISSVQAEDLALYYCQQHYNTPPTFGSGTKLEIK
notes: Mouse monoclonal antibody from a hybridoma, purified on Protein G
With B20, in experiment [1], the affinity, expressed as Kd, was 4.74 nM; the dissociation rate constant (koff) amounted to 0.000134 s⁻¹; the kon came out at 28300 M⁻¹ s⁻¹.

B21: mouse anti-Ang2 antibody 2F10 (antibody, V domains shown)
VH: QVQLVESGGGLVKPGGSLKLSCAASGFTFSDYYMYWIRQTPEKRLEWVATINDGGSYTYYPDSVKGRFTISRDNAKNNLYLQMSSLKSEDTAMYYCARDWGLRPWFVYWGQGTLVTVSA
VL: B20 VL with N93T
notes: as for B20
In the case of B21, in experiment [1], the equilibrium dissociation constant (Kd) was 0.138 nM, the off-rate (koff) is 1.71e-05 s⁻¹ and the on-rate constant (kon) is 124000 M⁻¹ s⁻¹.

B22: mouse anti-Ang2 antibody 4B9 (antibody, V domains shown)
VH: B21 VH with Q1E, I37V, N52S, D53V, Y57F
VL: B20 VL with N93S
notes: Mouse monoclonal antibody from a hybridoma (KCLRF-BP-00418), purified on Protein G
For the molecule B22, in experiment [1], the Kd came out at 0.00368 nM, the koff stood at 5.04e-07 s⁻¹ and the kon was 137000 M⁻¹ s⁻¹.

The values are drawn from patent US20210079083A1 (INSTITUTE FOR BASIC SCIENCE, published 2021).
